According to paper doi:10.1101/556266 (bioRxiv, 2019):

T1: GST-ActI-SIPA1L2-1-624 (rat, UniProt Q5JCS6 1-624)
T1 sequence: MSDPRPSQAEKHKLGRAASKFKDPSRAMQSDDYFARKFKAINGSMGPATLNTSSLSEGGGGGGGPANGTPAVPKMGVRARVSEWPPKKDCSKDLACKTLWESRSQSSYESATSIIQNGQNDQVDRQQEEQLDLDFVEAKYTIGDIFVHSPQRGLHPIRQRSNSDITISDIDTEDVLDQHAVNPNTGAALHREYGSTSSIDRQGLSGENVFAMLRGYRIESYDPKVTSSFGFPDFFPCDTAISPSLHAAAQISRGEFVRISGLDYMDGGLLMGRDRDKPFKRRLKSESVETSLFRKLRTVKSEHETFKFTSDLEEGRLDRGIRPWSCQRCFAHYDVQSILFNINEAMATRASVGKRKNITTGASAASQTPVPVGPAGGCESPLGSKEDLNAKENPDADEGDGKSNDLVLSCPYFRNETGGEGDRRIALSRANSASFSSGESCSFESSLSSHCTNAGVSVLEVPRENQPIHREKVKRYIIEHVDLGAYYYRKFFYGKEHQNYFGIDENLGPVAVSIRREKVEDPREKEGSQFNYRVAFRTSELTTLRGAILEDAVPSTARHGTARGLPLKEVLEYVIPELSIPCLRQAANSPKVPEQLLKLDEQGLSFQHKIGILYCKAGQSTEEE

T2: GST-SIPA1l2-86-99 (rat, UniProt Q5JCS6 86-99)
T2 chain: PKKDCSKDLACKTL


Key:
[1] = target: T1, GST-ActI-SIPA1L2-1-624; test: pull-down
[2] = target: T2, GST-SIPA1l2-86-99; test: pull-down

| binding result [1] | binding result [2] | Binder |
| --- | --- | --- |
| binds |  | MBP-TrkB-454-821 (domain or fragment) not shown |
|  | binds | KLARHSKFGMKG [MBP-TrkB-454-465] |
